Results published in the Human Domainome abundance scans (Beltran et al. 2025).

B1: E3 ubiquitin-protein ligase Midline-1, residues 172 to 214; numbered along this chain, O15344 (parent)
chain: GLMCLEHEDEKVNMYCVTDDQLICALCKLVGRHRDHQVAALSE
B2: Steroid hormone receptor ERR2, residues 100 to 176; numbered along this chain, O95718 (parent)
chain: KRLCLVCGDIASGYHYGVASCEACKAFFKRTIQGNIEYSCPATNECEITKRRRKSCQACRFMKCLKVGMLKEGVRLD

Variants of: B1
Assay: abundance fitness (aPCA) (normalised: wild type 0, dead -1); higher = more abundant; growth selection in yeast, the domain comes from the species named
Conditions: Homo sapiens

Abundance fitness of substitutions, site by site:
L29: Q -0.016; R 0.227; S 0.279; T 0.175; V 0.008; Y -0.085
V30: A 0.15; C -0.115; D 0.145; E 0.138; F -0.381; G 0.134; H 0.21; I -0.131; K 0.235; L -0.028; M -0.039; N 0.147; P 0.022; R -0.055; S 0.114; W -0.309; Y -0.049
G31: A -0.231; C -0.121; D 0.111; E -0.154; F -0.519; H 0.057; I -0.887; K -0.065; L -0.47; M -0.514; Q -0.438; R -0.299; S -0.263; T -0.333; W -0.803; Y -0.19
R32: A 0.033; C -0.021; D -0.072; E 0.149; F -0.593; G 0.061; H -0.152; I -0.18; K 0.116; L -0.058; M -0.219; N 0.287; P -0.022; Q 0.007; S 0.073; T 0.09; V -0.172; W -0.323
H33: A -0.591; D -0.647; E -0.576; F -0.528; G -0.478; K -0.423; L -0.829; N -0.42; Q -0.73; R -0.732; S -0.718; T -0.538; V -0.882; W -1.01; Y -0.603
R34: A 0.164; C 0.033; D -0.169; E 0.063; G 0.048; H 0.25; I 0; K 0.376; L -0.376; P -0.24; Q 0.088; S -0.066; V -0.069; W -0.542; Y -0.544
D35: A -0.285; C -0.142; E 0.088; F -0.254; H -0.177; I -0.496; K -0.105; L -0.172; M -0.299; N -0.114; P -0.299; Q 0.034; R -0.287; S -0.189; T -0.042; V -0.28; Y -0.33
H36: A -0.445; C -0.056; D -0.798; E -0.546; G -0.516; I -0.488; K 0.034; L -0.753; M -1.04; N -0.376; P -0.637; Q -0.284; R -0.669; S -0.533; T -0.689; V -0.588; W -1.01; Y -0.381
Q37: A -0.006; D 0.105; E 0.023; F -0.347; G -0.146; H -0.148; I -0.508; L -0.338; M -0.269; N -0.184; P -0.015; R -0.077; S 0.047; T -0.026; V -0.208; W -0.6; Y -0.169
V38: C 0.076; D -0.131; F 0.124; G -0.134; H 0.082; I -0.217; K -0.209; L -0.035; M -0.18; N -0.243; Q -0.125; R -0.217; S -0.008; T -0.233; W -0.018
A39: C 0.003; D 0.088; E 0.016; H -0.024; I -0.08; K 0.059; M -0.089; N 0.401; P -0.491; Q 0.04; S 0.102; T 0.181; V 0.027; W -0.424; Y -0.393
A40: D 0.031; F 0.099; G 0.046; H -0.141; I -0.789; K 0.108; L -0.158; M -0.151; P 0.228; Q 0.082; R -0.019; S 0.065; T 0.035; V -0.236; W -0.406; Y -0.572
L41: A 0.072; C 0.176; F -0.132; G 0.051; H 0.172; I -0.082; K 0.161; M 0.069; N -0.034; P 0.297; Q 0.136; S 0.134; T 0.12; V -0.053; W 0.001; Y -0.467
S42: A -0.021; C 0.012; D 0.209; E 0.119; F -0.656; G 0.078; H 0.089; I -0.446; L -0.342; M -0.262; N 0.142; P 0.056; Q -0.049; R -0.127; T 0.064; Y -0.34
E43: A -0.004; D -0.239; G -0.045; H -0.197; K 0.091; L -0.241; P -0.076; Q -0.317; R -0.031; S 0.058; T -0.221; V -0.534; W -0.175

Variants of: B2
Assay: as above
Conditions: Homo sapiens

Abundance fitness: each site, then its substitutions
K1: A -0.34; C -0.432; D -0.089; E -0.128; F -0.641; G -0.386; H -0.525; I -0.45; L -0.67; M 0.013; N 0.031; Q -0.346; R -0.286; S -0.295; T -0.177; V -0.334; W -0.387
R2: A -0.226; C -0.111; D 0.125; E -0.105; F 0.16; G -0.176; H 0.072; K -0.066; L -0.136; M -0.074; N 0.04; P -0.502; Q -0.367; S -0.187; T -0.263; V -0.228; W -0.338; Y 0.014
L3: A -0.047; C -0.373; E -0.048; F 0.284; G -0.118; H 0.133; I 0.319; M -0.1; N 0.179; P -0.372; Q -0.055; R -0.152; S -0.062; T -0.025; V -0.036; W -0.446; Y 0.219
C4: A -0.801; D -1.1; E -0.634; F -1.09; G -0.696; H -0.956; I -0.956; K -0.66; L -0.8; M -0.72; P -0.938; Q -0.759; R -0.792; S -0.824; T -0.79; V -0.917; W -0.934; Y -0.426
L5: A -0.192; C -0.375; F -0.133; G -0.341; H -0.351; I -0.333; K -0.143; M -0.139; N -0.246; P -0.358; Q -0.094; R -0.197; S -0.233; T -0.031; V -0.424; W -0.332; Y -0.186
V6: A -0.497; C -0.684; D -0.934; E -0.612; G -0.768; H -1.18; K -0.211; L -0.836; M -1.01; N -0.826; P -0.978; Q -0.781; R -0.739; S -0.713; T -0.51; W -0.751; Y -0.57
